# Test results: IntAct's records for PubMed 18171471
# B1: Focal adhesion kinase 1 (Gallus gallus (Chicken)), Q00944 (parent)
# chain: MAAAYLDPNLNHTPSSSAKTHLGTGMERSPGAMERVLKVFHYFENSSEPTTWASIIRHGDATDVRGIIQKIVDCHKVKNVACYGLRLSHLQSEEVHWLHLDMGVSNVREKFELAHPPEEWKYELRIRYLPKGFLNQFTEDKPTLNFFYQQVKNDYMLEIADQVDQEIALKLGCLEIRRSYGEMRGNALEKKSNYEVLEKDVGLRRFFPKSLLDSVKAKTLRKLIQQTFRQFANLNREESILKFFEILSPVYRFDKECFKCALGSSWIISVELAIGPEEGISYLTDKGANPTHLADFNQVQTIQYSNSEDKDRKGMLQLKIAGAPEPLTVTAPSLTIAENMADLIDGYCRLVNGATQSFIIRPQKEGERALPSIPKLANNEKQGVRSHTVSVSETDDYAEIIDEEDTYTMPSTRDYEIQRERIELGRCIGEGQFGDVHQGIYMSPENPAMAVAIKTCKNCTSDSVREKFLQEALTMRQFDHPHIVKLIGVITENPVWIIMELCTLGELRSFLQVRKFSLDLASLILYAYQLSTALAYLESKRFVHRDIAARNVLVSATDCVKLGDFGLSRYMEDSTYYKASKGKLPIKWMAPESINFRRFTSASDVWMFGVCMWEILMHGVKPFQGVKNNDVIGRIENGERLPMPPNCPPTLYSLMTKCWAYDPSRRPRFTELKAQLSTILEEEKLQQEERMRMESRRQVTVSWDSGGSDEAPPKPSRPGYPSPRSSEGFYPSPQHMVQPNHYQVSGYSGSHGIPAMAGSIYPGQASLLDQTDSWNHRPQEVSAWQPNMEDSGTLDVRGMGQVLPTHLMEERLIRQQQEMEEDQRWLEKEERFLVMKPDVRLSRGSIEREDGGLQGPAGNQHIYQPVGKPDHAAPPKKPPRPGAPHLGSLASLNSPVDSYNEGVKIKPQEISPPPTANLDRSNDKVYENVTGLVKAVIEMSSKIQPAPPEEYVPMVKEVGLALRTLLATVDESLPVLPASTHREIEMAQKLLNSDLAELINKMKLAQQYVMTSLQQEYKKQMLTAAHALAVDAKNLLDVIDQARLKMISQSRPH
# Variants of: B1
# Details: with paxi_chick PXN
row,effect of a mutation on the interaction,Variant
1,decreasing interaction,E949A;K956A;R963A
2,decreasing interaction,I937A
